Source: publication PMC3843118, “ABC transporter functions as a pacemaker for sequestration of plant glucosides in leaf beetles” (eLife, 2013)

Substrate: OCc1ccccc1O[C@@H]1O[C@H](CO)[C@@H](O)[C@H](O)[C@H]1O
Assay: efflux of injected substrate from oocytes, HPLC-MS
Assay type: cell-based, Chrysomela populi
Settings: Xenopus oocytes expressing CpMRP vs water-injected control, modified Barth's medium pH 7.4, room temperature, oocyte volume assumed 1 µl

B1: CpMRP (Chrysomela populi) (protein)
chain: MDNGYQLKYDNPRDKANFISKLFFGWMIGLVRKATRTGLEVGDLYKTREADKSKKLADLLEKNWTKELKRAKLKGTKPSLSRALLKTFTMEYMGWGLLFFIQFVVLRSILPLILSYLISLFQESDMDDMVDRTNAMYICSGILITITAISIFFLHHTNKGLTVVGMKARIAVSSLIYRKITRLNQTSLGETAAGQVVNILSNDVNRFDLVVLSLHCLWTLPIQVALLFYLLWRQVQISCLAGILSMMIICIPGQGYVGKLTGVLRFRVAKKTDTRVKLMNEVISGIQVIKMYAWEKSFEKLIKLMRADEIKDLTSTSYLRGLLLSCVVFIERLTMFLTVTCYVLLGNVITADKVFSMAQFFNILQYGIAILYPMAVSYGAETLISIKRLQDFLLLEERKTPSIETAEDNGIQLSDVSASWTADTRTLRDITLNLPPGTLCAVVGPVGAGKSSLLQLLLGELPLSSGTMSLAGTISYSSQEPWLFQSSVRKNVLFGEPYQSSWYKQVVKVCALEKDFDQFPQRDQTIVGERGVSLSGGQRARINLARAIYRKTDVYLMDDPLSAVDTHVGRHLFDECIYRHLRGKTRILATHQLQYLKNADVIVVMNEGRIEAQGSFEELSDSELDFTKLLVSADETKGESKKLSLVEEPKIDYIKRLSVRSIMSTQSEFIEMMEYGDTEELGVDGNAHPFKDYCKAPRNVCLLVVVIISLILAQAVCSGADYWSSFWTRQEEIRHSTRARPVSDSSEVIQLVPLGNQTISLDGNKYTNENRDFSFDTFFDQVFLDNRIYKLLKTNYSMGVYGFLIIAAIVFTIGRSVLFCKLTMQASTNLHSDMFHTLLKAPMRFFDTNPSGRVLNRFSKDMGAVDEILPRTLLESIQIMLVMCGILVNIAVANPYMLVAMVVMGVCFYFLSKWYVTTASNVKHLEGFTKSPVFSHVNSTLNGITTIRAFRAEEVLCEEFDDQQDVHTSSWYLTLSCIASFGLWMDIVCLLFLACVTFSFVLMHSTSSVNGSLVGLAISQCLILTGMLQHGMRQTSEVINQLTSVERIRQYTKIDTEGPFETPIEKKPLKGWPNRGRLEFRNLVLRYVAEDDPVLRNLTFTVLPGEKVGIVGRTGAGKSSLISALFRLAPTSGSILIDGVDSKVLGLTDLRMKISIIPQEPVLFSATMRYNLDPFDEFDDRSLWDALEQVELKDAVESLDIMVTEGGNNFSLGQRQLICLARAILRNNNILVLDEATANVDQRTDSFIQKTIRRNFEDCTVLTIAHRLNTIMDSDKVLVMHFGEMVEYDHPHILLQLPEGHFHKMVLETGPAIYAQLKDVAEKAYHKNSRL
notes: cRNA expressed in Xenopus laevis oocytes
For B1, the Km was 5.8 mM.
